{"source": "the DeepSol protein solubility set", "data": [{"experiment": "soluble on expression in E. coli; label from the status in PepcDB or PDB records", "values": [{"sequence": "MKIKSIRKAVLLLALLTSTSFAAGKNVNVEFRKGHSSAQYSGEIKGYDYDTYTFYAKKGQKVHVSISNEGADTYLFGPGIDDSVDLSRYSPELDSHGQYSLPASGKYELRVLQTRNDARKNKTKKYNVDIQIK", "soluble on expression in E. coli": "soluble"}, {"sequence": "SEASFVQTTMALGLPSKKASSRNVIVERRNLITVCRFSVKTLLEKYTAEPIDDSSEEFVNFAAILEQILSHRFKACAPAGPASWFSSDGQRGFWDYIRLACSKVPNNCVSSIENMENISTARAKGRAWIRVALMEKRMSEYITTALRDNRTTRRFYDSGAIMLREEATVLTGMLIGLSAIDFSFCLKGEVLDGKTPVVIDYTPYLKFTQSYDYLTDEEERHSAESSTSEDNSPEHPYLPLVTDEDSWYNKWHKMEQKFRIVYAQKGYLEELVRLRESQLKDLEAENRRLQLQLEEAAAQNQREKRELEGVILELQEQLPDPPPPPRTGLIPGDHAPLAQGSKELTTSLVNQWPSLSTLHRPEGASNSKLYRRHSFMSTEPLSAEASLSSDSQRLGEAKRDEEPWGPIGSSEPN", "soluble on expression in E. coli": "not soluble"}, {"sequence": "MRDRLLAAEKVKAIDWRDDALYLLDQRVLPFEEVWHRYTTAAGVAEAIRTMVVRGAPAIGISAAYGAVLGARARIAEGGDWYPALEEDMQLLADSRPTAVNLFWALNRIRDRLMRVKNGDNPLAALEAEAVAIHLSDREANLTMAQLGADLIRKHQGNLQTVLTHCNTGALATGGFGTALGVIRAAHLEGMIERVYADETRPWLQGSRLTAWELANEGIPVTLNADSAAAHLMRTKGITWVIVGADRITANGDVANKIGTYQLAVAAMHHGVRFMVVAPSSTIDMEMASGDDIIIEERDGRELLEVGGQRVGADVEAFNPVFDVTPADLIDAIVTEKGIVERPDTARMAQLMSRKHLHLEHHHHHH", "soluble on expression in E. coli": "soluble"}, {"sequence": "MGSDKIHHHHHHMKILLYLEAEQFLSHSGIGRAMKHQQRALDLMGIDWTKNPEDDYDILHLNTYGFSSWKMLKKAKKAGKKVIFHGHSTKEDFQNSFIGSNIAAPFFKQYLMHFYRAADLVITPTDYSASLLRSYGIKCPILPISNGIDLTKYSRSEAKEQAFREYFSLKSDQKVVVTAALYFKRKGIDDFIKVAERMPDVTFIWFGYQNLWTIPGWIRRIVKKNHPKNVLFPGYIKGDIFEGAMSSADAFFFPSREETEGIVVLEALASHQKTVVRDIPVYHGWLDSTCVSMATDVEGFVNQLQDVLDGKVDKTKEAYQVAESRTIEKVAQQLADAYQQTLEL", "soluble on expression in E. coli": "not soluble"}, {"sequence": "MHFSRIVSGLACSIILNISVSNANAAQVENYTQYLPDGANLALMVQKIGASTPAIDYHAQQMALPASTQKVLTALAALLQLGPDFRFNTTLESHGTITDGVLRGNLIARFGGDPTLTRQQLRNMVATLRKAGVKQIAGDVVIDTSVFASHDKAPGWPWNDMTQCFSAPPAAAIVDRNCFSVSLYSAPNPGDTAFIRVASYYPVQMFSEVRTLAKGSPDAQYCELDVVPGELNRFTLTGCLTQRSEPLPLAFAVQNGASYAGAILKDELKKADIQIDGNLRRQTIPSPAGNVLAQTQSAPLHDLLKIMLKKSDNMIADTVFRTIGHQRFGVPGTWRSGADAVRQILRQKAGVDLGNSIVVDGSGLSRHNLISPATMMQVLQYIAQNDQELNFISMLPLAGYDGTLRYRGGLHEAGVNGKVSAKTGALQGVYNLAGFITTASGQRMAFVQFLSGYAVPPEDQKNRRAPLVRFESRLYKDIYQNN", "soluble on expression in E. coli": "not soluble"}, {"sequence": "MGSDKIHHHHHHMQLLKELCSIHAPSGNEEPLKDFILEYIRSNAGSWSYQPVIYADNDLQDCIVLVFGNPRTAVFAHMDSIGFTVSYNNHLHPIGSPSAKEGYRLVGKDSNGDIEGVLKIVDEEWMLETDRLIDRGTEVTFKPDFREEGDFILTPYLDDRLGVWTALELAKTLEHGIIAFTCWEEHGGGSVAYLARWIYETFHVKQSLICDITWVTEGVEAGKGVAISMRDRMIPRKKYVNRIIELARQTDIPFQLEVEGAGASDGRELQLSPYPWDWCFIGAPEKDAHTPNECVHKKDIESMVGLYKYLMEKL", "soluble on expression in E. coli": "not soluble"}, {"sequence": "MKVTFMNLEERKKLETKSIDELDLIGKKVCVDTCVVIDGRITELIERGKLKDATIIIPEAVVSELEYQANMGREIGYKGIEELRKLIEKASEHNIKVEYYGERPTREEIFLAKSGEIDAMIRKVAKETNSILLTSDWIQYNLAKAQGIEAYFLEAAEEEVELVLD", "soluble on expression in E. coli": "not soluble"}, {"sequence": "MAHHHHHHSLIQAVLFDLDGTLADTALDLGGALNTLLARHGLPAKSMDEIRTQASHGAAGLIKLGAGITPDHPDYARWRTEYLDEYDSRYAQDTTLFDGVNELIAELGKRGIKWGIITNKPMRFTDKLVPKLGFIIPPAVVVSGDTCGEPKPSVKPMLYACGQIHADPQHTLYVGDAERDIQAGRNAGMTTVLAEWGYIAPEDDTGSWQADFHIRTPLDLLECLDKIQPEG", "soluble on expression in E. coli": "soluble"}, {"sequence": "GMSAPEDWNSQVIQEFRANGGRVGGNFEGAPMVLVHHVGRKTGKAAVTPMMYLPSDDDPGTIYVFASKAGAASNPAWYYNLTTAGTAQVEVGTETYAVGVTEVTGEDRDRIYSEQARRYPGFADYEKKTAGIRTIPVLALTRT", "soluble on expression in E. coli": "soluble"}, {"sequence": "LAELFEKAAAHLQGLIQVASREQLLYLYARYKQVKVGNCNTPKPSFFDFEGKQKWEAWKALGDSSPSQAMQEYIAVVKKLDPGWNPQIPEKKGKEA", "soluble on expression in E. coli": "soluble"}, {"sequence": "MGSDKIHHHHHHMKNGKISESVLKRSVLKQLHTKSDRILFKPAVGEDCAVISMQAGGKTKLVTATQTFTLDVSDKHVRANCAVYDALNNIYAMGADPVGIELALLVPTTENEAVLRETVRAIDAVCEKAGIVVLGGHTQVSRAVKNIVVTVTAIGEAYEQALTPSSAAAPGMDVIVTGYVGLEGTAILANEKRTELETRFSKAFIDKSAAYIDHISTAMEAASAIGAGVAAIHDASQGGIFGALWDMAEASGIGLDIDLKKLPIRQDTIEISEFFDINPYKLLSGGSLIIIAADGTRVVRELEKTGQNAVIVGATTDSNDRVLISGEERRFLETAQTDEIYKVFN", "soluble on expression in E. coli": "not soluble"}, {"sequence": "MSLKKEYLQCQSLVDVVRLRALHSPNKKSCTFLNKELEETMTYEQLDQHAKAIAATLQAEGAKPGDRVLLLFAPGLPLIQAFLGCLYAGCIAVPIYPPAQEKLLDKAQRIVTNSKPVIVLMIADHIKKFTADELNTNPKFLKIPAIALESIELNRSSSWQPTSIKSNDIAFLQYTSGSTMHPKGVMVSHHNLLDNLNKIFTSFHMNDETIIFSWLPPHHDMGLIGCILTPIYGGIQAIMMSPFSFLQNPLSWLKHITKYKATISGSPNFAYDYCVKRIREEKKEGLDLSSWVTAFNGAEPVREETMEHFYQAFKEFGFRKEAFYPCYGLAEATLLVTGGTPGSSYKTLTLAKEQFQDHRVHFADDNSPGSYKLVSSGNPIQEVKIIDPDTLIPCDFDQVGEIWVQSNSVAKGYWNQPEETRHAFAGKIKDDERSAIYLRTGDLGFLHENELYVTGRIKDLIIIYGKNHYPQDIEFSLMHSPLHHVLGKCAAFVIQEEHEYKLTVMCEVKNRFMDDVAQDNLFNEIFELVYENHQLEVHTIVLIPLKAMPHTTSGKIRRNFCRKHLLDKTLPIVATWQLNKIEEGHHHHHH", "soluble on expression in E. coli": "soluble"}, {"sequence": "AHHHHHHGSGVEEHKKEAPKTFKFGVITVSDKGAKGEREDKSGPLIIEELSKLGEHVYYKIVPDDKIEVLIALFEAIKSGADVVVTTGGTGITRRDITIESIKPLFDKELSFGEVFRAKSYEEVGYATVLTRATAGIIRGQERIVVVFSLPGSVNAVKTGLEIIKSEVFHILKHARE", "soluble on expression in E. coli": "soluble"}, {"sequence": "MGSDKIHHHHHHLITIENSKFKAGIAERGAELQSLVNKADNYEYVWTGDKTFWNRHAPILFPSIGKSNQDQYRLGAKTYPMSQHGFARDYDFDVSDKSDSAVTFTQHQNAETLKKFPFEYTLAVTYMLTDGGLSVHYTVTNDDSKSMPFALGFHPAFNVGLKADGSFDDYDLTVEPLNSPLQRFGIGPVPFRNGDVEDIPGAEGNRLPLTHDLLDGGLVILANSEIAKATLASPHHDHSITLDISDFPYLTIWSPEHKKAPFIAVEPFDGLPDQAGEPTDWYTKLGNTTLSAGANKQLALKVELH", "soluble on expression in E. coli": "not soluble"}, {"sequence": "MEIKRQQEIVEAYHYDMRVPDSEVETDLRVSFSPIEVEEENYPENSSALVARLEFRIVFDEFVLSGAISQINHIIDRKIEKQEDISQEEVDELVRPLFSIVERLSYEVTEIALDRPGVQLNFQQSEEA", "soluble on expression in E. coli": "not soluble"}, {"sequence": "MGSDKIHHHHHHMNSSVKTRILQPLRIGKHIARHPIIQGAMAVRVSGAKLAGAVANAGGVGVIASLGLGLDSPYFDKRKKRSFFTANRLALIDELAKARSISPDGVIGVNILVATKDYSVLAQTAAAQGADIIITGAGLPLALPEYTAAYPDVALVPSVANLEAAQLICETWQSRYHRLPDALIVENCQQVGGHFTQCEQVNIPGFSLELVIRQLRDYCQNHLGARIPLIVSGGISDRTDIDRMIAIGADGVQIGTRFVTTVECDADQRYKDYHLQAQPEDIVTVPSPVGKPSRALHNLFTEQVMSNSSNLEKRCIANCLETCLCRDHGKTYCLLQALAQAARGDVENGLIFSGANAGYTQDIISVPELMTELTQAHTIEVSSSDKY", "soluble on expression in E. coli": "not soluble"}, {"sequence": "MMKKFIAPLLALLVSGCQIDPYTHAPTLTSTDWYDVGMEDAISGSAIKDDDAFSDSQADRGLYLKGYAEGQKKTCQTDFTYARGLSGKSFPASCNNVENASQLHEVWQKGADENASTIRLN", "soluble on expression in E. coli": "soluble"}, {"sequence": "MSQYNPTTADFEALLMQSFQTNDLNEGSVVKGRVIAIEKDMAIIDAGLKVEGRIPLKEFGAKGKDGSLQIGDEVEVYIERIENAMGEAVLSREKARREESWIRLEEKFNAGARVDGVIFSQVKGGFTVDLDGAVAFLPRSQVDIRPIRDVSPLMHNSQSFEILKMDRRRGNIVVSRRTVLEESRAEQRSEIVQNLEENQIVEGVVKNITDYGAFVDLGGIDGLLHVTDMAWRRVNHPSEILTIGQTIKVQIIRINQDTHRISLGMKQLESDPWESISARYPVGKKITGAVTNITDYGGFVEIEPGIEGLIHVSEMSWTKKNVHPGKILSTSQEVEVVILEIDPSKRRISLGLKQTFENPWVAFANKFPVNSQIEGEVKNKTEFGLFIGLEGDVDGMVHLSDLDWNRPGEQVIDTYNKGDIVKAVVLDVDIEKERISLGIKQLSSDKVGEAAASGELRKGAVVTCEVTAVNDNGIDVKLTDHNLETTIRRTDLARDRDEQRPERFSIGQRVDARITAFDKKTRKLSVSIKALEIAEEKEAVAQYGSTDSGASLGDILGAALKKQEQDLEHHHHHH", "soluble on expression in E. coli": "soluble"}, {"sequence": "RLHEILASGVYANHPSPLTIALGKDISGRPVVSDLAKMPHALVAGTTGSGKSVAINAIILSLVYKASPDNVRLILIDPKMLELSVYDGIPHLLTPVVTDMRDAASALNWCVAEMERRYKLMSALGVRNLAGYNQKVREAVKNEEPLTNPLNPVPGSPELLEEMPLIVVVIDELADLMMIVGKKVEKLIARLAQKARAAGIHLLLATQRPSV", "soluble on expression in E. coli": "not soluble"}, {"sequence": "MGSDKIHHHHHHMYYLSFSISSNCGLSAAAEHLQNKIVTLNVINSTDFNTVIAFTLARDIDAMRNDFAKDFKTVYIARGKKAAFINGTKISHGIVPAMISEQIIPLYPIFAENGSEWFNAIVLEKEHIDNFVALIEKKNNIETLDYERIRNGDSMFSIIKNANRGIFTLELTETERRIVNSSLRQGFFSWPRSYDLTSISREFGLTKPTILYHIRNAERKVMEALFGS", "soluble on expression in E. coli": "not soluble"}]}]}
